Tests used:
[1] = target: 4-1BB on CD3/CD28-activated human CD4 T cells (human (endogenous in CD4 T cells)) (UniProt Q07011)
[2] = target: recombinant human galectin-8N (human); test: fluorescence polarisation; fluorescence anisotropy in solution, by inhibition: fixed galectin (0.2-2.5 µM) with 0.02 µM of its fluorescent probe, in the presence of 0.07-[…] (rh)4-1BB Fc or (rh)IgG1 Fc; average Kd from the points with ≥ 15% inhibition
[3] = target: recombinant human galectin-9C (human); test: as above
[4] = target: recombinant human galectin-9N (human); test: as above

Chain of recombinant human (rh)4-1BB Fc chimera protein (Q07011 24-186, change not shown): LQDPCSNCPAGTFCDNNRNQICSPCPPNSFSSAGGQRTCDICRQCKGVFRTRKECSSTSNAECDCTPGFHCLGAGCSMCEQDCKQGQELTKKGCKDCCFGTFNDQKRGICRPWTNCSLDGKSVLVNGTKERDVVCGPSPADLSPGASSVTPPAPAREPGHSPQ
Chain of Gal-3 in normal human plasma (P17931 whole entry): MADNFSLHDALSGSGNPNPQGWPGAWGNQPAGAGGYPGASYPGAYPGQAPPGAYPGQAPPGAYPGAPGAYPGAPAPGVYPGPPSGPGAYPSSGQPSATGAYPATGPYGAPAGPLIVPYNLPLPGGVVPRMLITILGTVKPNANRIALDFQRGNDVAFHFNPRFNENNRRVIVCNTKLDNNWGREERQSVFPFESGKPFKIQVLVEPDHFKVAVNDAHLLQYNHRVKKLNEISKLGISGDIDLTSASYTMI
Chain of 4-1BB on CD3/CD28-activated human CD4 T cells (human (endogenous in CD4 T cells)) (Q07011 24-255): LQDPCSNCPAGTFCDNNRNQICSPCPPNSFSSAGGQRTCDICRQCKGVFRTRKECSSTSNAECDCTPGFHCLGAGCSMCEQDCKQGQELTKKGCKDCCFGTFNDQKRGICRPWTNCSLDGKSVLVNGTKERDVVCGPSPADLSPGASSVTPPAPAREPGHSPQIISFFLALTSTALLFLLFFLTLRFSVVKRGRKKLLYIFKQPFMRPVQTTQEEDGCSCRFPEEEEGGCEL

Row | fold decrease in fraction of 4-1BB+CD4+ T cells that produced TNFα upon 4-1BBL stimulation, after pre-incubation of activated CD4 T-cells with plasma [1] [fold] | Kd [2] [nM] | Kd [3] [nM] | Kd [4] [nM] | Substance
1 | 3.8 |  |  |  | Gal-3 in normal human plasma (from UniProt P17931 1-250) (natural protein)
2 |  | 3590 | 2240 | 1390 | recombinant human (rh)4-1BB Fc chimera protein (from UniProt Q07011 24-186) (Fc fusion)

Reference: publication PMC9263355
